Measurements as given in publication PMC10786891, “Massively parallel profiling of RNA-targeting CRISPR-Cas13d”.

T1: EsCas13d, nuclease-dead (Eubacterium siraeum, UniProt B0MS50, R295A;H300A;R849A;H854A)
T1 sequence: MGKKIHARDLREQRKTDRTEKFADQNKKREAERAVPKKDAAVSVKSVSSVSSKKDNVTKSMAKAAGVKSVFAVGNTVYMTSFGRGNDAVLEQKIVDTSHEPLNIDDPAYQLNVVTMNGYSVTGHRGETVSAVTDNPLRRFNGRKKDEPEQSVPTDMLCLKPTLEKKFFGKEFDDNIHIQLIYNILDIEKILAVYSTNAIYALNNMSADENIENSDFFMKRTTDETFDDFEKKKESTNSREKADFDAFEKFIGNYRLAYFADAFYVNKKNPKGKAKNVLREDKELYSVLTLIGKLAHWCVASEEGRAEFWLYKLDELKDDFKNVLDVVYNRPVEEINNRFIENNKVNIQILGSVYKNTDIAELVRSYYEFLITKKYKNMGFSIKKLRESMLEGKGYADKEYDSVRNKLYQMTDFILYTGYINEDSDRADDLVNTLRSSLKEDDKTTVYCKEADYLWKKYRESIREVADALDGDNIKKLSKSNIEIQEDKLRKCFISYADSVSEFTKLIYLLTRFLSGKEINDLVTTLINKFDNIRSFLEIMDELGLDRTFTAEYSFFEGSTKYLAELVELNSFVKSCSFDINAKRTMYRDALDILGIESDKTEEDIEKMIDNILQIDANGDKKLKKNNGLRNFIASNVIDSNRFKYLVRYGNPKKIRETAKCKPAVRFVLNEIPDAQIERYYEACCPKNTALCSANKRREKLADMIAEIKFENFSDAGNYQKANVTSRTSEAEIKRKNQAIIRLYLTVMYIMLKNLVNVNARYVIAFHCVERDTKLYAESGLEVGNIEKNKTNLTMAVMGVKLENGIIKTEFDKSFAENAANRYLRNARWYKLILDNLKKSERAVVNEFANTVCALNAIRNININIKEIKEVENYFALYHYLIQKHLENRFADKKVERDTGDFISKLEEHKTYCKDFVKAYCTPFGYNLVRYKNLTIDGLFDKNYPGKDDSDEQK


biological target: T1, EsCas13d, nuclease-dead; assay: crRNA (strand 1, pre-loaded); Mg2+; 40 mM Tris-HCl pH 7.5, 150 mM NaCl, 6 mM MgCl2, 1 mM DTT, 0.1% Tween-20, 0.2 mg/ml BSA; 25 C; 10 min per concentration, then washed; conditions: tags: His6-TwinStrep-SUMO cleaved; N-terminal SNAP kept (SNAP-Surface 488); label: 3' end held by stalled T7 RNA polymerase

Row | Binder | Kd [nM]
1 | target 2 MT 5'PFS GAG 3'PFS UUC (mixed) RNA 1: CACCCGUGCAAAAUUGCAGGGGUCUAAAACCUUCUCCAAAUUGUUUCAUCCU RNA 2: GGGAAUGGAUCCACAUCUACGAAUUCGAGAGGAUGAAACAAUUUGGAGAAGUUCAGAUCGGAAGAGCACACGU | 15.7 ± 2.5
2 | target 2 MT 5'PFS UUG 3'PFS UGU (mixed) RNA 1: CACCCGUGCAAAAUUGCAGGGGUCUAAAACCUUCUCCAAAUUGUUUCAUCCU RNA 2: GGGAAUGGAUCCACAUCUACGAAUUCUUGAGGAUGAAACAAUUUGGAGAAGUGUAGAUCGGAAGAGCACACGU | 16.8 ± 1.9
3 | target 2 MT 5'PFS GUG 3'PFS UUA (mixed) RNA 1: CACCCGUGCAAAAUUGCAGGGGUCUAAAACCUUCUCCAAAUUGUUUCAUCCU RNA 2: GGGAAUGGAUCCACAUCUACGAAUUCGUGAGGAUGAAACAAUUUGGAGAAGUUAAGAUCGGAAGAGCACACGU | 22.5 ± 3.2
4 | target 2 MT 5'PFS GAA 3'PFS UCU (mixed) RNA 1: CACCCGUGCAAAAUUGCAGGGGUCUAAAACCUUCUCCAAAUUGUUUCAUCCU RNA 2: GGGAAUGGAUCCACAUCUACGAAUUCGAAAGGAUGAAACAAUUUGGAGAAGUCUAGAUCGGAAGAGCACACGU | 30 ± 9
5 | target 2 MT 5'PFS GUG 3'PFS UUC (mixed) RNA 1: CACCCGUGCAAAAUUGCAGGGGUCUAAAACCUUCUCCAAAUUGUUUCAUCCU RNA 2: GGGAAUGGAUCCACAUCUACGAAUUCGUGAGGAUGAAACAAUUUGGAGAAGUUCAGAUCGGAAGAGCACACGU | 27 ± 4
6 | target 2 MT 5'PFS AUG 3'PFS AUG (mixed) RNA 1: CACCCGUGCAAAAUUGCAGGGGUCUAAAACCUUCUCCAAAUUGUUUCAUCCU RNA 2: GGGAAUGGAUCCACAUCUACGAAUUCAUGAGGAUGAAACAAUUUGGAGAAGAUGAGAUCGGAAGAGCACACGU | 9.9 ± 1.4
7 | target 2 MT 5'PFS CAG 3'PFS UAC (mixed) RNA 1: CACCCGUGCAAAAUUGCAGGGGUCUAAAACCUUCUCCAAAUUGUUUCAUCCU RNA 2: GGGAAUGGAUCCACAUCUACGAAUUCCAGAGGAUGAAACAAUUUGGAGAAGUACAGAUCGGAAGAGCACACGU | 5.3 ± 1
8 | target 2 MT 5'PFS GGU 3'PFS CUU (mixed) RNA 1: CACCCGUGCAAAAUUGCAGGGGUCUAAAACCUUCUCCAAAUUGUUUCAUCCU RNA 2: GGGAAUGGAUCCACAUCUACGAAUUCGGUAGGAUGAAACAAUUUGGAGAAGCUUAGAUCGGAAGAGCACACGU | 16.7 ± 1.3
9 | target 1 insA 3' of 13,insG 3' of 7 (mixed) RNA 1: CACCCGUGCAAAAAUGCAGGGGUCUAAAACUGAGCGGAUAACCUCUCUAUGG RNA 2: GGGAAUGGAUCCACAUCUACGAAUUCGUACCAUAGAGAGAGUUAUCGCGCUCACCGAGAUCGGAAGAGCACACGU | 4.48 ± 0.22
10 | target 1 complement block 5-10 (mixed) RNA 1: CACCCGUGCAAAAAUGCAGGGGUCUAAAACUGAGCGGAUAACCUCUCUAUGG RNA 2: GGGAAUGGAUCCACAUCUACGAAUUCGUACCAUAGAGAGGUAUAGGCCUCACCGAGAUCGGAAGAGCACACGU | 14.5 ± 0.7
11 | target 2 MT 5'PFS GCU 3'PFS UGU (mixed) RNA 1: CACCCGUGCAAAAUUGCAGGGGUCUAAAACCUUCUCCAAAUUGUUUCAUCCU RNA 2: GGGAAUGGAUCCACAUCUACGAAUUCGCUAGGAUGAAACAAUUUGGAGAAGUGUAGAUCGGAAGAGCACACGU | 17.7 ± 2.7
12 | target 2 MT 5'PFS GUG 3'PFS AUU (mixed) RNA 1: CACCCGUGCAAAAUUGCAGGGGUCUAAAACCUUCUCCAAAUUGUUUCAUCCU RNA 2: GGGAAUGGAUCCACAUCUACGAAUUCGUGAGGAUGAAACAAUUUGGAGAAGAUUAGAUCGGAAGAGCACACGU | 11.3 ± 0.9
13 | target 2 MT 5'PFS GUG 3'PFS AUA (mixed) RNA 1: CACCCGUGCAAAAUUGCAGGGGUCUAAAACCUUCUCCAAAUUGUUUCAUCCU RNA 2: GGGAAUGGAUCCACAUCUACGAAUUCGUGAGGAUGAAACAAUUUGGAGAAGAUAAGAUCGGAAGAGCACACGU | 11.3 ± 1.5
14 | target 2 MT 5'PFS GUG 3'PFS AUC (mixed) RNA 1: CACCCGUGCAAAAUUGCAGGGGUCUAAAACCUUCUCCAAAUUGUUUCAUCCU RNA 2: GGGAAUGGAUCCACAUCUACGAAUUCGUGAGGAUGAAACAAUUUGGAGAAGAUCAGAUCGGAAGAGCACACGU | 10.8 ± 0.8
15 | target 2 MT 5'PFS GCU 3'PFS UGC (mixed) RNA 1: CACCCGUGCAAAAUUGCAGGGGUCUAAAACCUUCUCCAAAUUGUUUCAUCCU RNA 2: GGGAAUGGAUCCACAUCUACGAAUUCGCUAGGAUGAAACAAUUUGGAGAAGUGCAGAUCGGAAGAGCACACGU | 12.9 ± 2.1
16 | target 2 MT 5'PFS GUG 3'PFS AUG (mixed) RNA 1: CACCCGUGCAAAAUUGCAGGGGUCUAAAACCUUCUCCAAAUUGUUUCAUCCU RNA 2: GGGAAUGGAUCCACAUCUACGAAUUCGUGAGGAUGAAACAAUUUGGAGAAGAUGAGAUCGGAAGAGCACACGU | 13.8 ± 1.3
17 | target 2 MT 5'PFS CCU 3'PFS CCC (mixed) RNA 1: CACCCGUGCAAAAUUGCAGGGGUCUAAAACCUUCUCCAAAUUGUUUCAUCCU RNA 2: GGGAAUGGAUCCACAUCUACGAAUUCCCUAGGAUGAAACAAUUUGGAGAAGCCCAGAUCGGAAGAGCACACGU | 5.3 ± 2
18 | target 2 MT 5'PFS GAU 3'PFS UAG (mixed) RNA 1: CACCCGUGCAAAAUUGCAGGGGUCUAAAACCUUCUCCAAAUUGUUUCAUCCU RNA 2: GGGAAUGGAUCCACAUCUACGAAUUCGAUAGGAUGAAACAAUUUGGAGAAGUAGAGAUCGGAAGAGCACACGU | 13.4 ± 2.7
19 | target 2 MT 5'PFS GAU 3'PFS UAC (mixed) RNA 1: CACCCGUGCAAAAUUGCAGGGGUCUAAAACCUUCUCCAAAUUGUUUCAUCCU RNA 2: GGGAAUGGAUCCACAUCUACGAAUUCGAUAGGAUGAAACAAUUUGGAGAAGUACAGAUCGGAAGAGCACACGU | 16 ± 3.4
20 | target 2 MT 5'PFS GAU 3'PFS UAA (mixed) RNA 1: CACCCGUGCAAAAUUGCAGGGGUCUAAAACCUUCUCCAAAUUGUUUCAUCCU RNA 2: GGGAAUGGAUCCACAUCUACGAAUUCGAUAGGAUGAAACAAUUUGGAGAAGUAAAGAUCGGAAGAGCACACGU | 12 ± 4
21 | target 1 insU 3' of 9,insG 3' of 6 (mixed) RNA 1: CACCCGUGCAAAAAUGCAGGGGUCUAAAACUGAGCGGAUAACCUCUCUAUGG RNA 2: GGGAAUGGAUCCACAUCUACGAAUUCGUACCAUAGAGAGGUUAUUCCGGCUCACCGAGAUCGGAAGAGCACACGU | 12.1 ± 1.4
22 | target 2 MT 5'PFS GCC 3'PFS AAA (mixed) RNA 1: CACCCGUGCAAAAUUGCAGGGGUCUAAAACCUUCUCCAAAUUGUUUCAUCCU RNA 2: GGGAAUGGAUCCACAUCUACGAAUUCGCCAGGAUGAAACAAUUUGGAGAAGAAAAGAUCGGAAGAGCACACGU | 11.9 ± 3.4
23 | target 2 MT 5'PFS GCC 3'PFS AAC (mixed) RNA 1: CACCCGUGCAAAAUUGCAGGGGUCUAAAACCUUCUCCAAAUUGUUUCAUCCU RNA 2: GGGAAUGGAUCCACAUCUACGAAUUCGCCAGGAUGAAACAAUUUGGAGAAGAACAGAUCGGAAGAGCACACGU | 17 ± 5
24 | target 2 MT 5'PFS GCC 3'PFS AAG (mixed) RNA 1: CACCCGUGCAAAAUUGCAGGGGUCUAAAACCUUCUCCAAAUUGUUUCAUCCU RNA 2: GGGAAUGGAUCCACAUCUACGAAUUCGCCAGGAUGAAACAAUUUGGAGAAGAAGAGAUCGGAAGAGCACACGU | 22 ± 5
25 | target 2 MT 5'PFS GAU 3'PFS UAU (mixed) RNA 1: CACCCGUGCAAAAUUGCAGGGGUCUAAAACCUUCUCCAAAUUGUUUCAUCCU RNA 2: GGGAAUGGAUCCACAUCUACGAAUUCGAUAGGAUGAAACAAUUUGGAGAAGUAUAGAUCGGAAGAGCACACGU | 16 ± 4
26 | target 2 MT 5'PFS AUA 3'PFS CCA (mixed) RNA 1: CACCCGUGCAAAAUUGCAGGGGUCUAAAACCUUCUCCAAAUUGUUUCAUCCU RNA 2: GGGAAUGGAUCCACAUCUACGAAUUCAUAAGGAUGAAACAAUUUGGAGAAGCCAAGAUCGGAAGAGCACACGU | 15.9 ± 2.5
27 | target 2 MT 5'PFS AUA 3'PFS CCG (mixed) RNA 1: CACCCGUGCAAAAUUGCAGGGGUCUAAAACCUUCUCCAAAUUGUUUCAUCCU RNA 2: GGGAAUGGAUCCACAUCUACGAAUUCAUAAGGAUGAAACAAUUUGGAGAAGCCGAGAUCGGAAGAGCACACGU | 8.5 ± 0.8
28 | target 2 MT 5'PFS GAG 3'PFS CUU (mixed) RNA 1: CACCCGUGCAAAAUUGCAGGGGUCUAAAACCUUCUCCAAAUUGUUUCAUCCU RNA 2: GGGAAUGGAUCCACAUCUACGAAUUCGAGAGGAUGAAACAAUUUGGAGAAGCUUAGAUCGGAAGAGCACACGU | 8.9 ± 0.7
